Laboratory results from patent US20200164069A1 (BOSTON PHARMACEUTICALS, published 2020).

T1: IL-7 (UniProt P13232 26-177)
T1 sequence (looked up): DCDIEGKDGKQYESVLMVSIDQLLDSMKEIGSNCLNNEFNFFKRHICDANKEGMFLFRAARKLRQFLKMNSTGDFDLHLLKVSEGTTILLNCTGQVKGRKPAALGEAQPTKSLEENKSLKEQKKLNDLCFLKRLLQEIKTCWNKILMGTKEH

T2: IL-4 (UniProt P05112 25-153)
T2 sequence (looked up): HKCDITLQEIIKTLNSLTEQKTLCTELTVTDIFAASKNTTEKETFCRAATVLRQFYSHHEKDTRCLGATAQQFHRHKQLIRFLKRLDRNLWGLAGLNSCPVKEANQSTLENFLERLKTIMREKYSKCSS


Key:
[1] = target: IL-21 (species not stated in the assay) (Homo sapiens (Human), UniProt Q9HBE4 25-162, Biotinylated in the competition ELISA of paragraph 259 (sites not given); unlabelled in the other results.); assay: cell-based or functional assay
Chain of IL-21 (species not stated in the assay) (Q9HBE4 25-162 limits assumed): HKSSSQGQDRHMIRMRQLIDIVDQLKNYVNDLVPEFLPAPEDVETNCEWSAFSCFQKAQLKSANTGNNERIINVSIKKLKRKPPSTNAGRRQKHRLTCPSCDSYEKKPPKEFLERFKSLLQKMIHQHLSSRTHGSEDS

[2] = target: T3, recombinant human IL-21 (human, UniProt Q9HBE4 30-162, limits assumed); assay: cell-based or functional assay
T3 sequence (Q9HBE4 30-162 limits assumed, form in doubt): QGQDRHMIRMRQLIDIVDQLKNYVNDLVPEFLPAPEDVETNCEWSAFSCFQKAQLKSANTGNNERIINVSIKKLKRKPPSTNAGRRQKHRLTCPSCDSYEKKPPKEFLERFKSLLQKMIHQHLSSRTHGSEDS

[3] = target: T4, recombinant cynomolgus monkey IL-21 (cynomolgus monkey (Macaca fascicularis), UniProt Q9HBE4 30-162 (human entry), limits assumed); assay: cell-based or functional assay
T4 sequence (Q9HBE4 other isoform, or with tags, fused parts or gaps limits assumed): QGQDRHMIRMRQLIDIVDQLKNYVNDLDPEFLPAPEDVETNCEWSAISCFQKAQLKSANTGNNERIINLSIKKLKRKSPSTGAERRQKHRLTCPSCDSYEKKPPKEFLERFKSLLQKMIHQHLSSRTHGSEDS

[4] = target: T3, recombinant human IL-21; assay: cell-based or functional assay; remark: listed apart in the source
[5] = target: T4, recombinant cynomolgus monkey IL-21; assay: cell-based or functional assay; remark: listed apart in the source
[6] = target: T3, recombinant human IL-21; assay: cell-based or functional assay; remark: listed apart in the source
[7] = target: T4, recombinant cynomolgus monkey IL-21; assay: cell-based or functional assay; remark: listed apart in the source
[8] = target: T3, recombinant human IL-21; assay: cell-based or functional assay; remark: listed apart in the source
[9] = target: T4, recombinant cynomolgus monkey IL-21; assay: cell-based or functional assay; remark: listed apart in the source
[10] = target: T1, IL-7; assay: ELISA on plate-coated cytokine (2 µg/ml)
Description: (§1) ELISA was used to test cross reactivity of lead clones. Cytokines tested include 11-2, IL-4, IL-7, IL-9, and IL-15. Maxisorp ELISA plate (NUNC) was coated with 2 μg/ml of different cytokines in PBS at 4° C. overnight. The plate was then blocked with 3% BSA in PBST (PBS+0.1% Tween) at room temperature for one hour. Purified lead clone IgGs were serially diluted in PBST+3% BSA and the mixture was then added to each ELISA plate well and further incubated at room temperature for half an hour. After washing, secondary antibody-HRP was added to each well for 1 hour. Wells were washed first with PBST and then with PBS and the TMB solution from Pierce was added to detect the secondary antibody. After 5′ the reaction was stopped by the addition of 1N sulfuric acid. The plates were then read in an ELISA reader at 450 nm to detect the binding.

[11] = target: IL-2 (UniProt P60568 21-153); assay: ELISA on plate-coated cytokine (2 µg/ml)
Chain of IL-2 (P60568 21-153 limits assumed): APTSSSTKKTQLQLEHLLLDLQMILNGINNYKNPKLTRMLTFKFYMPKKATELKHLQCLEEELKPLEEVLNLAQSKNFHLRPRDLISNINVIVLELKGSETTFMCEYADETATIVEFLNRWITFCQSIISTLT
Description: as §1

[12] = target: T2, IL-4; assay: ELISA on plate-coated cytokine (2 µg/ml)
Description: as §1

[13] = target: T3, recombinant human IL-21; assay: method not stated for this clone (Table 2, column Kd hu)
[14] = target: IL-15 (UniProt P40933 49-162); assay: ELISA on plate-coated cytokine (2 µg/ml)
Chain of IL-15 (P40933 49-162 limits assumed): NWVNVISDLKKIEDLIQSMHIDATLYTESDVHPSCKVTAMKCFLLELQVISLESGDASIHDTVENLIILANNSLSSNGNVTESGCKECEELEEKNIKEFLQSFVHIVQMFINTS
Description: as §1

maximal inhibition in pSTAT3 assay [1] [%] | IC50 of IL-21-induced proliferation of human naive CD4+ T cells (ATP, day 4) [2] [nM] | inhibition of IgG production by human B cells [2] [%] | inhibition of IgG production by human B cells [3] [%] | IC50 in PC differentiation assay (2 nM IL-21) [4] [nM] | IC50 in PC differentiation assay (2 nM IL-21) [5] [nM] | IC50 in pSTAT3 assay (human PBMCs, 20 pM IL-21) [6] [pM] | IC50 in pSTAT3 assay (human PBMCs, 20 pM IL-21) [7] [pM] | IC50 in NK-92 cell assay (IFNγ, 200 pM IL-21) [8] | IC50 in NK-92 cell assay (IFNγ, 200 pM IL-21) [9] | binding result [10] | binding result [11] | binding result [12] | Kd [13] [nM] | binding result [14] | Binder
100 | 0.061 | > 99 | > 99 | 1.53 | 0.775 | 3.15 | 5.99 | 41 pM | 37 pM | no binding | no binding | no binding | – | – | murine monoclonal antibody 19E3 (antibody, V domains shown, also called 19E3.1) VH: QVQLQQPGSELVMPGASVKMSCKASGYIFTDYWMHWVKQRPGQGLEWIGTIDPSDNYTIYSQNFKGKATLTVDESSSTAYMLLSSLTSEDSAVYFCARYGFAMDYWGQGTSVTVSS VL: DIQLTQTTSSLSASLGDRVTISCRASQDISNFLNWYQQTPDGTVKLLIYYTSRLHSGVPSRFSGSGSGTDYSLTISNLEQEDIATYFCQQGHTLPRTFGGGTKLEIK
100 | – | – | – | 116 | 29.8 | 328 | 160 | 20.2 nM | 3.43 nM | no binding | no binding | no binding | 0.108 | – | murine monoclonal antibody 9H10 (antibody, V domains shown, also called 9H10.1) VH: EVQLQQFGAEVVKPGASVKMSCKASGYTFTDYNMNWVKQSHEKSLEWIGDIHPKFHSTNYNQKFKGKATLTIDTSSSTAYMELRNLTSEDTAVYYCARVGNYVYFVMDYWGQGTSVTVSS VL: SIVMTQTPKFLLVSAGDRVTITCKASQSVSNDVAWYQQKPGQSPKLLIYYASNRYTGVPDRFSGSGYGTDFTFTISTVQAEDLAVYFCQQDYTSPWTFGGGTKLEIK

Second part, the binder before the results:

Binder | maximal inhibition in pSTAT3 assay [1] [%] | IC50 of IL-21-induced proliferation of human naive CD4+ T cells (ATP, day 4) [2] [nM] | inhibition of IgG production by human B cells [2] [%] | inhibition of IgG production by human B cells [3] [%] | IC50 in PC differentiation assay (2 nM IL-21) [4] [nM] | IC50 in PC differentiation assay (2 nM IL-21) [5] [nM] | IC50 in pSTAT3 assay (human PBMCs, 20 pM IL-21) [6] [pM] | IC50 in pSTAT3 assay (human PBMCs, 20 pM IL-21) [7] [pM] | IC50 in NK-92 cell assay (IFNγ, 200 pM IL-21) [8] | IC50 in NK-92 cell assay (IFNγ, 200 pM IL-21) [9] | binding result [10] | binding result [11] | binding result [12] | Kd [13] [nM] | binding result [14]
K44VHa6-N56Q (antibody, IgG1, V domains shown) VH: QVQLVQSGAEVKKPGASVKVSCKASGYTFTDYWMHWVRQAPGQGLEWMGTIDPSDQYTIYSQNFKGRVTMTVDESTSTVYMELSSLRSEDTAVYYCARYGFAMDYWGQGTLVTVSS VL: DIQLTQSPSSLSASVGDRVTITCRASQDISNFLNWYQQKPGKAVKLLIYYTSRLHSGVPSRFSGSGSGTDYTLTISSLQPEDFATYYCQQGHTLPRTFGGGTKVEIKR | 100 | – | – | – | 0.573 | 0.659 | 5.5 | 9.75 | 54.8 pM | 60.3 pM | no binding | no binding | no binding | 0.000245 | –
K2Ha-N56Q (antibody, human IgG1, kappa, V domains shown) VH: QVQLVQSGAEVKKPGASVKVSCKASGYTFTDYWMHWVRQAPGQGLEWMGTIDPSDQYTIYSQNFKGRVTMTRDTSTSTVYMELSSLRSEDTAVYYCARYGFAMDYWGQGTLVTVSS VL: DIQLTQSPSSLSASVGDRVTITCRASQDISNFLNWYQQKPGKAVKLLIYYTSRLHSGVPSRFSGSGSGTDYTLTISSLQPEDFATYFCQQGHTLPRTFGGGTKVEIKR | 100 | – | – | – | 0.618 | 1.32 | 18.7 | 15.6 | 99 pM | 83.4 pM | no binding | no binding | no binding | 0.000403 | –
9F11-4 (antibody, IgG1, V domains shown) VH: EVQLVESGGGLVQPGGSLRLSCAASGFTFSDAWMDWVRQAPGKGLEWVAEIRSEADNHPTYYAESVKGRFTISRDDSKNSLYLQMNSLKTEDTAVYYCTEYDYEGFVHWGQGTLVTVSS VL: DIVMTQTPLSLSVTPGQPASISCRASKSVSTYGYSYMHWYLQKPGQPPQLLIYLASNLESGVPDRFSGSGSGTDFTLKISRVEAEDVGVYYCQHSRELPLTFGQGTKLEIK | 100 | – | – | – | – | – | 12.1 | 52.2 | – | – | – | – | – | – | –
9F11-6 (antibody, IgG1, V domains shown) VH: EVQLVESGGGLVQPGGSLRLSCAASGFTFSDAWMDWVRQAPGKGLEWVAEIRSEADNHPTYYAESVKGRFTISRDDSKNSVYLQMNSLKTEDTAVYYCTEYDYEGFVHWGQGTLVTVSS VL: DIVMTQTPLSLSVTPGQPASISCRASKSVSTYGYSYMHWYLQKPGQPPQLLIYLASNLESGVPDRFSGSGSGTDFTLKISRVEAEDVGVYYCQHSRELPLTFGQGTKLEIK | 100 | – | – | – | – | – | 13.2 | 50.8 | – | – | – | – | – | – | –
9F11-11 (antibody, IgG1, V domains shown) VH: EVQLVESGGGLVQPGGSLRLSCAASGFTFSDAWMDWVRQAPGKGLEWVAEIRSEADNHPTYYAESVKGRFTISRDDSKNSLYLQMNSLKTEDTAVYYCTEYDYEGFVHWGQGTLVTVSS VL: DIVLTQTPLSLSVTPGQPASISCRASKSVSTYGYSYMHWYLQKPGQPPQLLIYLASNLESGVPDRFSGSGSGTDFTLKISRVEAEDVGVYYCQHSRELPLTFGQGTKLEIK | 100 | – | – | – | – | – | 13.6 | 45.9 | – | – | – | – | – | – | –
murine monoclonal antibody 8B6 (antibody, V domains shown, also called 8B6.1) VH: EVQLVESGGGSVKPGGSLKLSCAASGLTFSHYYMYWVRQTPEKRLEWVAIISDGGDYTHYSDSVKGRFTISRDNAKNNLYLQMSSLQSEDTAMYYCAGDYGYGYEGWFAYWGQGTLVTVST VL: DIVMTQSQKFMSTSVGDRVSVTCKASQNVDTYVAWYQQKPGQSPKALIYSTSYRYSGVPDRFTGSGSGTDFTLTISNVQSEDLAEYFCQQYNSYPWTFGGGTKLEIK | 100 | – | – | – | > 200 | 8.9 | 115 | 228 | 944 pM | 771 pM | no binding | no binding | no binding | – | no binding
